Measurements as given in patent US11161912B2, “Heparanase-neutralizing monoclonal antibodies” (Technion Research & Development Foundation Limited, priority 2015, dated 2021).

Biological target: T1, recombinant active heparanase (Homo sapiens, UniProt Q9Y251, DEL111-157/INS109GSGSG)
T1 sequence (Q9Y251 with tags, fused parts or gaps INS109GSGSG/DEL111-157): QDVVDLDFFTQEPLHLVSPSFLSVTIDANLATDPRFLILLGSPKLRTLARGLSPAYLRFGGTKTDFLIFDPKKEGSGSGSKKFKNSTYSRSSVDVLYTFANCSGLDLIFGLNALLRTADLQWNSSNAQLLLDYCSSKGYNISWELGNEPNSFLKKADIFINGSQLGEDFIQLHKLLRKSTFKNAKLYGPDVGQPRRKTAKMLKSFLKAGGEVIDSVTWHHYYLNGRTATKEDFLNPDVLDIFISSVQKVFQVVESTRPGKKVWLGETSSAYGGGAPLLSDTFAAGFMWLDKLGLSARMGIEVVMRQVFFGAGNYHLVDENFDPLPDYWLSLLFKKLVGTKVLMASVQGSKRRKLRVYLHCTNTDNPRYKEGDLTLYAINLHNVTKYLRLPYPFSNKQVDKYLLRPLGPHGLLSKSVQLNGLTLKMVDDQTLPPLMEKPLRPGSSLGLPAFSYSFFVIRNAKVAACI
Assay: Heparanase enzymatic activity on 35S-labelled ECM, enzyme pre-incubated with antibody
Type: biochemical
Conditions: antibody 2 μg/ml, heparanase 200 ng, pre-incubated 2 h on ice
Protocol: Cell lysates, heparanase activity and protein blotting. Preparation of cell lysates, protein blotting, and measurement of heparanase enzymatic activity were carried out as described (Vlodaysky I, et al. 1999, Nature Med 5(7):793-802; Arvatz et at, 2011, FASEB J 24(12):4969-4976). […] Likewise, cell lysates or tumor extracts were incubated (12 h, 37° C., pH 6.0) with the labeled ECM and sulfate labeled degradation fragments released into the incubation medium were analyzed by gel filtration on a Sepharose CL-6B column. Degradation fragments of HS side chains are eluted from Sepharose 6B at 0.5<Kav<0.8 (peak II, fractions 17-30). Nearly intact sulfate labeled HSPGs are eluted just after the void volume (Kav<0.2, peak I, fractions 1-10). […]
FIG. 2A. […] The mixture was then applied onto dishes coated with ^35S-labeled ECM and heparanase enzymatic activity was determined as described under “Materials and Methods”. […] Blood vessels density was quantified by counting the number of CD31-positive vessels per field and is presented graphically at the right second panel. At least 25 fields of each treatment were counted. […]
FIG. 3A. […] The mixture was then applied onto ^35S-labeled ECM-coated dishes and heparanase activity was determined as described above (lower panel). […] Quantification of the extent of CD45 staining is shown graphically in the lower panel. […]

B1: mAb 9E8: monoclonal IgM raised against KKDC peptide (Lys158-Asn171) of heparanase; VH SEQ ID NO: 7, VL SEQ ID NO: 8 (antibody)
VH: EVKLLESGGGLVQPGGSLKLSCAASGFDFSRYWMSWVRQAPGKGLEWIGEINPDSSTINYTPSLKDKFIISRDNAKNTLYLQMSKVRSEDTALYYCARRGYEGNYAMDYWGQGTSVTVSSESQSFPNVFPLVSCESPLSDKNLVAMGCLAR
VL: DIVMTQAAPSVPVTPGESVSISCRSSKSLLHSNGNTYLYWFLQRPGQSPQLLIYRMSNLASGVPDRFSGSGSGTAFTLRISRVEAEDVGVYYCMQHLEYPFTFGSGTKLEIKRADAAPTVSIFPPSSEQLTSGGASVVCFL
modifications: IgM constant regions
- neutralization of heparanase enzymatic activity: neutralizes heparanase enzymatic activity to magnitude comparable with the polyclonal antibody #1453
